Measured values taken from article PMC4039619 (Matrix biology : journal of the International Society for …, 2014).

Molecular target: human recombinant IR-A extracellular domain (Met 1-Lys 944) with C-terminal polyhistidine tag (human, UniProt P06213-2 28-944)
Experiment: ELISA

B1: human recombinant decorin protein core (natural protein, UniProt P07585 31-359, looked up)
chain: DEASGIGPEVPDDRDFEPSLGPVCPFRCQCHLRVVQCSDLGLDKVPKDLPPDTTLLDLQNNKITEIKDGDFKNLKNLHALILVNNKISKVSPGAFTPLVKLERLYLSKNQLKELPEKMPKTLQELRAHENEITKVRKVTFNGLNQMIVIELGTNPLKSSGIENGAFQGMKKLSYIRIADTNITSIPQGLPPSLTELHLDGNKISRVDAASLKGLNNLAKLGLSFNSISAVDNGSLANTPHLRELHLDNNKLTRVPGGLAEHKYIQVVYLHNNNISVVGSSDFCPPGHNTKKASYSGVSLFSNPVQYWEIQPSTFRCVYVRSAIQLGNYK
- Kd: 7.8 nM
